Numbering of substitutions follows the chain as printed. Blank lines part the entries; values can stand above or below the binder they belong to.
Target: T1, CD123 (Homo sapiens (Human), UniProt P26951 19-305, limits assumed)
T1 construct: also called CD123-Signal
T1 sequence: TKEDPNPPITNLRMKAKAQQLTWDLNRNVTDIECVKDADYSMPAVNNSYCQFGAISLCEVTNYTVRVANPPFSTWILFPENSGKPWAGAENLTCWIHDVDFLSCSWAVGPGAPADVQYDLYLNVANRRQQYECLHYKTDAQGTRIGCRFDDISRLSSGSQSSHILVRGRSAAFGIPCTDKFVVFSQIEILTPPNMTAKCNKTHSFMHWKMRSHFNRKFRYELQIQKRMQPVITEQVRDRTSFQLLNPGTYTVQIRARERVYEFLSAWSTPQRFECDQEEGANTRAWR
Test: ELISA, format not described
Design: unit not given here

ELISA_avg: 3.5
B1: D domain SEQ ID NO: 730 (designed binder)
chain: MGSWVEFWHRLDAIKARLNALGGSEAELAAFEKEIAAFESELQAYKGKGNPEVEDLRWYAADFRLILQAYRHN

ELISA_avg: 10.6
B2: D domain SEQ ID NO: 733 (designed binder)
chain: MGSWNEFYDRLSAIYFRLQALGGSEAELAAFEKEIAAFESELQAYKGKGNPEVEHLRWYAADIRMILQAYRHN

ELISA_avg: 4.8
B3: D domain SEQ ID NO: 736 (designed binder)
chain: B2 chain with N5V, S12H, Q19L, H55D, M65L, I66V

ELISA_avg: 10.6
B4: D domain SEQ ID NO: 731 (designed binder)
chain: B2 chain with N5Y, D9N, F16A, H55D, M65Y, I66M

ELISA_avg: 5.3
B5: D domain SEQ ID NO: 732 (designed binder)
chain: B2 chain with N5Y, F16A, H55D, M65Y, I66M

ELISA_avg: 3.9
B6: D domain SEQ ID NO: 735 (designed binder)
chain: B2 chain with N5E, S12G, Y15F, F16A, Q19H, H55D

ELISA_avg: 9
B7: D domain SEQ ID NO: 734 (designed binder)
chain: B2 chain with S24F

ELISA_avg: 6.3
B8: D domain SEQ ID NO: 724 (designed binder)
chain: MGSWYEFEDRLDAIQWRLWALGGSEAELAAFEKEIAAFESELQAYKGKGNPEVEFLRESAANIRQHLQAYRHN

ELISA_avg: 3.2
B9: D domain SEQ ID NO: 725 (designed binder)
chain: B8 chain with Y5S, D9Y, D12F, Q15E, W16N, W19D, S59E, N62M, H66L

ELISA_avg: 15
B10: D domain SEQ ID NO: 710 (designed binder)
chain: MGSWGEFWARLEAIWIRLDALGGSEAELAAFEKEIAAFESELQAYKGKGNPEVEWLREEAADIRRSLQAYRHN

ELISA_avg: 4.2
B11: D domain SEQ ID NO: 715 (designed binder)
chain: MGSWVEFRDRLDAIETRLWALGGSEAELAAFEKEIAAFESELQAYKGKGNPEVEWLRYEAAEIRMVLQAYRHN

ELISA_avg: 4.9
B12: D domain SEQ ID NO: 766 (designed binder)
chain: B11 chain with V5F, R8W, T16D, W19Y, W55E, Y58D, E62W, M65G, V66T

ELISA_avg: 4.8
B13: D domain SEQ ID NO: 757 (designed binder)
chain: B11 chain with V5Y, R8E, D9N, D12G, E15G, T16D, Y58D, E62Y, M65A

ELISA_avg: 4
B14: D domain SEQ ID NO: 770 (designed binder)
chain: MGSWWEFEMRLEAIEDRLFALGGSEAELAAFEKEIAAFESELQAYKGKGNPEVESLRWEAAFIRDILQAYRHN

ELISA_avg: 3.4
B15: D domain SEQ ID NO: 750 (designed binder)
chain: B11 chain with V5Y, R8E, D9W, D12M, T16D, W55Y, Y58H, M65D

ELISA_avg: 4.5
B16: D domain SEQ ID NO: 765 (designed binder)
chain: B14 chain with W5I, E8W, M9D, F19W, S55E, W58D, F62W, I66S

ELISA_avg: 21.8
B17: D domain SEQ ID NO: 773 (designed binder)
chain: B14 chain with W5I, M9D, S55W, W58Q, F62E, D65L, I66M

ELISA_avg: 4.1
B18: D domain SEQ ID NO: 723 (designed binder)
chain: B8 chain with E8M, D9V, Q15E, W16E, W19F, S59E, N62S, Q65Y

ELISA_avg: 4.5
B19: D domain SEQ ID NO: 738 (designed binder)
chain: B2 chain with N5V, Y8W, S12W, Y15E, F16D, Q19W, W58H, M65V, I66W

ELISA_avg: 6.9
B20: D domain SEQ ID NO: 762 (designed binder)
chain: B14 chain with W5F, M9W, E15F, F19Y, S55V, W58A, F62E, D65L, I66R

ELISA_avg: 3.4
B21: D domain SEQ ID NO: 720 (designed binder)
chain: B11 chain with R8Y, T16H, W19D, Y58D, E62F, M65D, V66M

ELISA_avg: 6.2
B22: D domain SEQ ID NO: 760 (designed binder)
chain: B11 chain with R8E, D9N, D12E, T16N, Y58E, E59D, E62Q, V66M

ELISA_avg: 3
B23: D domain SEQ ID NO: 771 (designed binder)
chain: B14 chain with W5F, M9I, S55F, W58D, F62E, D65Q, I66V

ELISA_avg: 4.2
B24: D domain SEQ ID NO: 746 (designed binder)
chain: B11 chain with V5Y, R8W, D12E, T16D, W55F, E59S, M65Y, V66Q

ELISA_avg: 4.3
B25: D domain SEQ ID NO: 716 (designed binder)
chain: B11 chain with V5M, R8I, T16H, W55F, Y58E, V66Y

ELISA_avg: 3.7
B26: D domain SEQ ID NO: 729 (designed binder)
chain: MGSWWEFESRLDAIFMRLTALGGSEAELAAFEKEIAAFESELQAYKGKGNPEVEDLREDAAFIREFLQAYRHN

ELISA_avg: 8.9
B27: D domain SEQ ID NO: 767 (designed binder)
chain: B11 chain with V5E, R8T, D12W, T16D, W19Y, Y58D, E62F, M65K, V66S

ELISA_avg: 5.1
B28: D domain SEQ ID NO: 743 (designed binder)
chain: B8 chain with Y5F, Q15W, W16D, E58M, S59D, N62M, Q65Y, H66I

ELISA_avg: 6.3
B29: D domain SEQ ID NO: 758 (designed binder)
chain: B8 chain with D9H, Q15Y, W16D, F55W, S59E, N62W, Q65L, H66W

ELISA_avg: 9
B30: D domain SEQ ID NO: 727 (designed binder)
chain: B11 chain with V5W, R8L, T16M, W19F, W55Y, Y58E, E62L, M65N, V66M

ELISA_avg: 4.2
B31: D domain SEQ ID NO: 741 (designed binder)
chain: B14 chain with W5T, M9W, E12Y, F19M, S55F, W58D, F62D, D65Q, I66Y

ELISA_avg: 12.2
B32: D domain SEQ ID NO: 722 (designed binder)
chain: B11 chain with V5F, R8L, T16E, Y58E, E62V, M65D, V66S

ELISA_avg: 4.9
B33: D domain SEQ ID NO: 728 (designed binder)
chain: B14 chain with M9D, E12D, D16Y, S55F, W58E, D65I, I66F

ELISA_avg: 6.1
B34: D domain SEQ ID NO: 755 (designed binder)
chain: B14 chain with W5Y, M9N, D16E, F19W, S55M, W58E, I66W

ELISA_avg: 11.5
B35: D domain SEQ ID NO: 740 (designed binder)
chain: B14 chain with W5Y, M9E, E12Y, F19Y, S55F, W58Q, F62D, D65L, I66M

ELISA_avg: 4.6
B36: D domain SEQ ID NO: 753 (designed binder)
chain: B10 chain with G5Y, A9D, W15E, I16E, D19W, W55Y, E58L, S66I

ELISA_avg: 3
B37: D domain SEQ ID NO: 772 (designed binder)
chain: B11 chain with V5Y, R8Y, D9Q, D12E, T16D, W19F, Y58D, M65V

ELISA_avg: 5.4
B38: D domain SEQ ID NO: 754 (designed binder)
chain: B14 chain with W5Y, M9E, E12W, D16E, F19Y, S55Y, W58Y, F62W, I66F

ELISA_avg: 6
B39: D domain SEQ ID NO: 759 (designed binder)
chain: B26 chain with W5Y, S9W, F15Y, M16D, T19G, D55W, F62E, E65A, F66L

ELISA_avg: 7.6
B40: D domain SEQ ID NO: 748 (designed binder)
chain: B14 chain with M9H, E12F, F19W, S55F, W58D, E59Y, F62E, I66Y

ELISA_avg: 5.8
B41: D domain SEQ ID NO: 718 (designed binder)
chain: B11 chain with R8Y, D12Y, T16V, W19L, W55F, Y58Q, M65D, V66W

ELISA_avg: 4.2
B42: D domain SEQ ID NO: 717 (designed binder)
chain: B11 chain with V5T, R8V, D9W, T16W, W19E, W55F, Y58E, M65D, V66W

ELISA_avg: 6.2
B43: D domain SEQ ID NO: 719 (designed binder)
chain: B11 chain with V5Y, R8Y, T16W, Y58D, E62Q, M65D, V66F

ELISA_avg: 3.7
B44: D domain SEQ ID NO: 747 (designed binder)
chain: B11 chain with R8E, D9S, D12A, T16H, W55E, Y58E, E59Y, M65D, V66W

ELISA_avg: 3.9
B45: D domain SEQ ID NO: 726 (designed binder)
chain: B26 chain with W5V, S9Y, F15T, M16E, T19L, D55I, D59E, E65Q, F66W

ELISA_avg: 4.9
B46: D domain SEQ ID NO: 768 (designed binder)
chain: B14 chain with W5V, E8V, M9D, S55F, W58D, E59Q, F62Y, D65F, I66M

ELISA_avg: 4.1
B47: D domain SEQ ID NO: 744 (designed binder)
chain: B11 chain with V5E, R8E, D12W, T16D, W55I, E59D, E62Y, M65E, V66I

ELISA_avg: 5.1
B48: D domain SEQ ID NO: 721 (designed binder)
chain: B8 chain with Y5F, E8V, D12T, W16V, F55Y, S59E, N62L, Q65Y, H66S

ELISA_avg: 11.3
B49: D domain SEQ ID NO: 751 (designed binder)
chain: B11 chain with V5Y, R8Y, D9N, T16D, W55Y, Y58Q, E62D, M65G, V66Q

ELISA_avg: 6.4
B50: D domain SEQ ID NO: 752 (designed binder)
chain: B14 chain with E8H, M9D, F19W, S55Y, W58I, F62D, D65R, I66Q

ELISA_avg: 3.2
B51: D domain SEQ ID NO: 749 (designed binder)
chain: B11 chain with V5Y, R8D, D9S, D12M, T16D, W55Y, Y58Q, V66I

ELISA_avg: 8.7
B52: D domain SEQ ID NO: 742 (designed binder)
chain: B14 chain with W5I, M9S, E12W, F19L, S55F, W58L, F62D, D65E, I66D

ELISA_avg: 6.2
B53: D domain SEQ ID NO: 756 (designed binder)
chain: B14 chain with W5Y, M9Y, F19W, S55Y, W58E, F62W, D65V, I66W

ELISA_avg: 4
B54: D domain SEQ ID NO: 739 (designed binder)
chain: B11 chain with V5Y, R8A, D12W, T16D, W55F, E59Y, E62D, M65W

ELISA_avg: 6
B55: D domain SEQ ID NO: 761 (designed binder)
chain: B14 chain with W5Y, M9E, F19W, S55W, W58E, E59Q, D65T, I66M

— US20250026849A1 (ARCELLX, published 2025)
